Experimental data taken from patent publication US20200087373A1 (UNIVERSITY OF COPENHAGEN, published 2020).
“And” between values parts separate entries of the source, which are not always exact repeats. Identical values can stand only once. Ends that are not written are not given here. * marks the point of attachment. C16 diacid = O=C(O)CCCCCCCCCCCCCCC(=O)*

B1: AT184 [hGIP(5-30)NH2[N24K]-C16diacid/24] (peptide)
peptide: TFISDYSIAMDKIHQQDFVK(C16 diacid)WLLAQK-NH2
modifications: N-terminus assumed
SMILES: CC[C@H](C)[C@H](NC(=O)[C@H](CO)NC(=O)[C@H](Cc1ccc(O)cc1)NC(=O)[C@H](CC(=O)O)NC(=O)[C@H](CO)NC(=O)[C@@H](NC(=O)[C@H](Cc1ccccc1)NC(=O)[C@@H](N)[C@@H](C)O)[C@@H](C)CC)C(=O)N[C@@H](C)C(=O)N[C@@H](CCSC)C(=O)N[C@@H](CC(=O)O)C(=O)N[C@@H](CCCCN)C(=O)N[C@H](C(=O)N[C@@H](Cc1c[nH]cn1)C(=O)N[C@@H](CCC(N)=O)C(=O)N[C@@H](CCC(N)=O)C(=O)N[C@@H](CC(=O)O)C(=O)N[C@@H](Cc1ccccc1)C(=O)N[C@H](C(=O)N[C@@H](CCCCNC(=O)CCCCCCCCCCCCCCC(=O)O)C(=O)N[C@@H](Cc1c[nH]c2ccccc12)C(=O)N[C@@H](CC(C)C)C(=O)N[C@@H](CC(C)C)C(=O)N[C@@H](C)C(=O)N[C@@H](CCC(N)=O)C(=O)N[C@@H](CCCCN)C(N)=O)C(C)C)[C@@H](C)CC
B2: AT185 [hGIP(5-30)NH2[W25K]-C16diacid/25] (peptide)
peptide: TFISDYSIAMDKIHQQDFVNK(C16 diacid)LLAQK-NH2
modifications: N-terminus assumed
SMILES: CC[C@H](C)[C@H](NC(=O)[C@H](CO)NC(=O)[C@H](Cc1ccc(O)cc1)NC(=O)[C@H](CC(=O)O)NC(=O)[C@H](CO)NC(=O)[C@@H](NC(=O)[C@H](Cc1ccccc1)NC(=O)[C@@H](N)[C@@H](C)O)[C@@H](C)CC)C(=O)N[C@@H](C)C(=O)N[C@@H](CCSC)C(=O)N[C@@H](CC(=O)O)C(=O)N[C@@H](CCCCN)C(=O)N[C@H](C(=O)N[C@@H](Cc1c[nH]cn1)C(=O)N[C@@H](CCC(N)=O)C(=O)N[C@@H](CCC(N)=O)C(=O)N[C@@H](CC(=O)O)C(=O)N[C@@H](Cc1ccccc1)C(=O)N[C@H](C(=O)N[C@@H](CC(N)=O)C(=O)N[C@@H](CCCCNC(=O)CCCCCCCCCCCCCCC(=O)O)C(=O)N[C@@H](CC(C)C)C(=O)N[C@@H](CC(C)C)C(=O)N[C@@H](C)C(=O)N[C@@H](CCC(N)=O)C(=O)N[C@@H](CCCCN)C(N)=O)C(C)C)[C@@H](C)CC
B3: AT189 [hGIP(5-30)NH2[Q29K]-C16diacid/29] (peptide)
peptide: TFISDYSIAMDKIHQQDFVNWLLAK(C16 diacid)K-NH2
modifications: N-terminus assumed
SMILES: CC[C@H](C)[C@H](NC(=O)[C@H](CO)NC(=O)[C@H](Cc1ccc(O)cc1)NC(=O)[C@H](CC(=O)O)NC(=O)[C@H](CO)NC(=O)[C@@H](NC(=O)[C@H](Cc1ccccc1)NC(=O)[C@@H](N)[C@@H](C)O)[C@@H](C)CC)C(=O)N[C@@H](C)C(=O)N[C@@H](CCSC)C(=O)N[C@@H](CC(=O)O)C(=O)N[C@@H](CCCCN)C(=O)N[C@H](C(=O)N[C@@H](Cc1c[nH]cn1)C(=O)N[C@@H](CCC(N)=O)C(=O)N[C@@H](CCC(N)=O)C(=O)N[C@@H](CC(=O)O)C(=O)N[C@@H](Cc1ccccc1)C(=O)N[C@H](C(=O)N[C@@H](CC(N)=O)C(=O)N[C@@H](Cc1c[nH]c2ccccc12)C(=O)N[C@@H](CC(C)C)C(=O)N[C@@H](CC(C)C)C(=O)N[C@@H](C)C(=O)N[C@@H](CCCCNC(=O)CCCCCCCCCCCCCCC(=O)O)C(=O)N[C@@H](CCCCN)C(N)=O)C(C)C)[C@@H](C)CC
B4: AT187 [hGIP(5-30)NH2[L27K]-C16diacid/27] (peptide)
peptide: TFISDYSIAMDKIHQQDFVNWLK(C16 diacid)AQK-NH2
modifications: N-terminus assumed
SMILES: CC[C@H](C)[C@H](NC(=O)[C@H](CO)NC(=O)[C@H](Cc1ccc(O)cc1)NC(=O)[C@H](CC(=O)O)NC(=O)[C@H](CO)NC(=O)[C@@H](NC(=O)[C@H](Cc1ccccc1)NC(=O)[C@@H](N)[C@@H](C)O)[C@@H](C)CC)C(=O)N[C@@H](C)C(=O)N[C@@H](CCSC)C(=O)N[C@@H](CC(=O)O)C(=O)N[C@@H](CCCCN)C(=O)N[C@H](C(=O)N[C@@H](Cc1c[nH]cn1)C(=O)N[C@@H](CCC(N)=O)C(=O)N[C@@H](CCC(N)=O)C(=O)N[C@@H](CC(=O)O)C(=O)N[C@@H](Cc1ccccc1)C(=O)N[C@H](C(=O)N[C@@H](CC(N)=O)C(=O)N[C@@H](Cc1c[nH]c2ccccc12)C(=O)N[C@@H](CC(C)C)C(=O)N[C@@H](CCCCNC(=O)CCCCCCCCCCCCCCC(=O)O)C(=O)N[C@@H](C)C(=O)N[C@@H](CCC(N)=O)C(=O)N[C@@H](CCCCN)C(N)=O)C(C)C)[C@@H](C)CC
B5: AT186 [hGIP(5-30)NH2[L26K]-C16diacid/26] (peptide)
peptide: TFISDYSIAMDKIHQQDFVNWK(C16 diacid)LAQK-NH2
modifications: N-terminus assumed
SMILES: CC[C@H](C)[C@H](NC(=O)[C@H](CO)NC(=O)[C@H](Cc1ccc(O)cc1)NC(=O)[C@H](CC(=O)O)NC(=O)[C@H](CO)NC(=O)[C@@H](NC(=O)[C@H](Cc1ccccc1)NC(=O)[C@@H](N)[C@@H](C)O)[C@@H](C)CC)C(=O)N[C@@H](C)C(=O)N[C@@H](CCSC)C(=O)N[C@@H](CC(=O)O)C(=O)N[C@@H](CCCCN)C(=O)N[C@H](C(=O)N[C@@H](Cc1c[nH]cn1)C(=O)N[C@@H](CCC(N)=O)C(=O)N[C@@H](CCC(N)=O)C(=O)N[C@@H](CC(=O)O)C(=O)N[C@@H](Cc1ccccc1)C(=O)N[C@H](C(=O)N[C@@H](CC(N)=O)C(=O)N[C@@H](Cc1c[nH]c2ccccc12)C(=O)N[C@@H](CCCCNC(=O)CCCCCCCCCCCCCCC(=O)O)C(=O)N[C@@H](CC(C)C)C(=O)N[C@@H](C)C(=O)N[C@@H](CCC(N)=O)C(=O)N[C@@H](CCCCN)C(N)=O)C(C)C)[C@@H](C)CC
B6: AT156 [hGIP(5-30)NH2[H18K]-C16diacid/18] (peptide)
peptide: TFISDYSIAMDKIK(C16 diacid)QQDFVNWLLAQK-NH2
modifications: N-terminus assumed
SMILES: CC[C@H](C)[C@H](NC(=O)[C@H](CO)NC(=O)[C@H](Cc1ccc(O)cc1)NC(=O)[C@H](CC(=O)O)NC(=O)[C@H](CO)NC(=O)[C@@H](NC(=O)[C@H](Cc1ccccc1)NC(=O)[C@@H](N)[C@@H](C)O)[C@@H](C)CC)C(=O)N[C@@H](C)C(=O)N[C@@H](CCSC)C(=O)N[C@@H](CC(=O)O)C(=O)N[C@@H](CCCCN)C(=O)N[C@H](C(=O)N[C@@H](CCCCNC(=O)CCCCCCCCCCCCCCC(=O)O)C(=O)N[C@@H](CCC(N)=O)C(=O)N[C@@H](CCC(N)=O)C(=O)N[C@@H](CC(=O)O)C(=O)N[C@@H](Cc1ccccc1)C(=O)N[C@H](C(=O)N[C@@H](CC(N)=O)C(=O)N[C@@H](Cc1c[nH]c2ccccc12)C(=O)N[C@@H](CC(C)C)C(=O)N[C@@H](CC(C)C)C(=O)N[C@@H](C)C(=O)N[C@@H](CCC(N)=O)C(=O)N[C@@H](CCCCN)C(N)=O)C(C)C)[C@@H](C)CC

Tests used:
human GIP receptor [1] = target: T1, human GIP receptor (human, UniProt P48546 22-466); assay: cell-based or functional assay
T1 sequence (looked up): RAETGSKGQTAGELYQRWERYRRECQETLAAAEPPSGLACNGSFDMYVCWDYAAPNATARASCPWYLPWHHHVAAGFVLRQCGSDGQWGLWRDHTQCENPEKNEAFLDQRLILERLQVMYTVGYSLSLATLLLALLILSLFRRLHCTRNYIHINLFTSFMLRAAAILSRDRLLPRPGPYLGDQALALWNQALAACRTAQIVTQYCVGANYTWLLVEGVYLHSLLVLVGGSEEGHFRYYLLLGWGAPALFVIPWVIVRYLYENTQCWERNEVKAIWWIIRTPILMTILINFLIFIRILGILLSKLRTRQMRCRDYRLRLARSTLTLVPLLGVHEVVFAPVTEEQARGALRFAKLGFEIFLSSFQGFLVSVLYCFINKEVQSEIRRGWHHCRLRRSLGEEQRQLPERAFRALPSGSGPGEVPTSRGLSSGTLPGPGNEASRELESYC

human GIP receptor [2] = target: T1, human GIP receptor; assay: 125I-hGIP competition binding, COS-7/hGIPR, 2% HSA;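 also: nonspecific binding defined as radioligand binding to untransfected cells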
Procedure: (§1) After incubation, the cells were washed twice in ice-cold binding buffer (+/−2% HSA) and lysed using 200 mM NaOH with 1% SDS for 30 min. Nonspecific binding was determined as the binding of radioactive ligand to untransfected cells.

human GIP receptor [3] = target: T1, human GIP receptor; assay: 125I-hGIP competition binding, COS-7/hGIPR, 0.1% casein;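 also: nonspecific binding defined as radioligand binding measured on untransfected cells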
Procedure: as §1

human GIP receptor [4] = target: T1, human GIP receptor; assay: 125I-hGIP competition binding, COS-7 cells expressing hGIPR;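 also: nonspecific binding taken as radioligand bound by untransfected cells, binding buffer with or without 2% HSA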
Procedure: as §1

human GIP receptor [5] = target: T1, human GIP receptor; assay: IC50 with 2% HSA over IC50 with 0.1% casein, 125I-hGIP competition, COS-7/hGIPR
Procedure: as §1

human GIP receptor [6] = target: T2, human GIP receptor (human, UniProt P48546 22-466); assay: cell-based or functional assay; remark: listed apart in the source
T2 sequence (looked up): T1 sequence (looked up)

human GIP receptor [7] = target: T2, human GIP receptor; assay: 125I-hGIP(1-42) competition binding, COS-7 cells expressing human GIPR, with 2% HSA;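 also: nonspecific signal taken as radioligand bound to untransfected cells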
Procedure: as §1

human GIP receptor [8] = target: T2, human GIP receptor; assay: 125I-hGIP(1-42) competition binding, COS-7 cells expressing human GIPR, without HSA;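 also: nonspecific binding defined as radioligand bound to cells lacking the transfected receptor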
Procedure: as §1

human GIP receptor [9] = target: T2, human GIP receptor; assay: ratio of Ki with 2% HSA to Ki without HSA, 125I-hGIP competition binding on hGIPR COS-7 cells;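 also: nonspecific binding was defined as radioligand signal on cells lacking the receptor transfection, with cell lysates measured after washes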
Procedure: as §1

Binder	cAMP agonism, Emax (human GIP receptor [1])	cAMP antagonism (human GIP receptor [1])	cAMP antagonism, log (human GIP receptor [1])	IC50 (human GIP receptor [2])	logIC50 (human GIP receptor [2])	IC50 (human GIP receptor [3])	logIC50 (human GIP receptor [3])	IC50 (human GIP receptor [4])	log IC50 (human GIP receptor [4])	Fold change HSA (2%)/Casein (0.1%) (human GIP receptor [5])	cAMP agonism (human GIP receptor [1])	cAMP agonism, EC50 (log) (human GIP receptor [1])	cAMP accumulation IC50 (human GIP receptor [6])	cAMP accumulation logIC50 (human GIP receptor [6])	Ki (human GIP receptor [7])	Ki (human GIP receptor [8])	Fold (Ki + HSA / Ki - HSA) (human GIP receptor [9])	cAMP accumulation Fold (fold change from GIP(5-30)NH2) (human GIP receptor [6])
B1	0	91 nM	-7 log M	11200 nM	-5 log M	7080 nM	-5.2 log M	247 nM	-6.6 log M	1.6 fold								
B2	18	44 nM	-7.4 log M	1150 nM	-5.9 log M	246 nM	-6.6 log M	87 nM	-7.1 log M	4.7 fold	44 nM	-7 log M						
B3	12	79 nM	-7.1 log M	575 nM	-6.2 log M	182 nM	-6.7 log M	118 nM	-6.9 log M and -6.93 log M	3.2 fold	79 nM	-7 log M and -7.1 log M						
B4	25	2380 nM	-5.6 log M	676 nM	-6.2 log M	144 nM	-6.8 log M	26500 nM	-4.6 log M and -4.58 log M	4.7 fold	2380 nM	-6 log M and -5.6 log M						
B5	0	79 nM	-7.1 log M	331 nM	-6.5 log M	87.1 nM	-7.1 log M	144 nM	-6.8 log M and -6.84 log M	3.8 fold								
TFISDYSIAMDKIHQQDFVNWLLAQK-NH2 (Not lipidated) [hGIP(5-30)NH2]													27.5 nM	-7.56 log(M)	6.7 nM	6.3 nM	1 fold	
B6													24 nM	-7.62 log(M)	29 nM	5 nM	5.8 fold	0.9 fold
